Data set [1] addresses T1, PSGL-1 (sLe^x-capped, sialylated) on PSGL-1 CHO cells (UniProt Q14242 42-412, sLe^x-capped (alpha2,3-sialylated, alpha1,3-fucosylated glycan)).
T1 construct: whole, on cells; also called sLe^x-modified PSGL-1; sialylated PSGL-1
T1 sequence: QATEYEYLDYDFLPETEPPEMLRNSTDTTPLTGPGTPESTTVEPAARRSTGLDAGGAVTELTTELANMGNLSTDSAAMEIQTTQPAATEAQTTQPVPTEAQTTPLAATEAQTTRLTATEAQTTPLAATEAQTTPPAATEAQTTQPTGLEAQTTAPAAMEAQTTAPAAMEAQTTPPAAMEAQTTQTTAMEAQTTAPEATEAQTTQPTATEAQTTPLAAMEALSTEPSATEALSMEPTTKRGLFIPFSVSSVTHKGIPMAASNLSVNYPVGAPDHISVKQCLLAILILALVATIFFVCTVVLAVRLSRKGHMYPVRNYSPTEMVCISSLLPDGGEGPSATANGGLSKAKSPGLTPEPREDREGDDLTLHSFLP
In words: PSGL-1 CHO cells preincubated with GST-OmpA, Aph adherence counted (competition with the bacteria).

Data set [2] concerns the molecule itself. The data set is described as follows: non-reducing SDS-PAGE and Western blot with anti-Asp14. A general note: A western blot detects proteins with antibodies after separation by electrophoresis.

The text below walks through data of patent US20170269080A1 (VIRGINIA COMMONWEALTH UNIVERSITY, published 2017).

B1: GST-OmpA (N-terminal glutathione-S-transferase-tagged A. phagocytophilum OmpA without signal sequence) (other)
chain: CGTLLPDSNVGVGRHDLGSHRSVAFAKKVEKVYFDIGKYDLKGPGKKVILELVEQLRQDDSMYLVVIGHADATGTEEYSLALGEKRANAVKQFIIGCDKSLAPRVTTQSRGKAEPEVLVYSTDAQEVEKANAQNRRAVIVVEFAHIPRSGVADMHAPVASSITSENSNASAEGEDMEASEFSSAIAN
notes: also called GST-tagged Aph OmpA; GST-ApOmpA; not shown: glutathione-S-transferase (GST) tag, N-terminal, from vector pDest-15
For the molecule B1, the “reduction of Aph binding to sLe^x-modified PSGL-1 relative to GST alone” value in data set [1] was around 60%.

B2: GST-Asp14 (N-terminal glutathione-S-transferase-tagged A. phagocytophilum Asp14) (other)
chain: MIPLAPWKSISVVYMSGSDEYKEIIKQCIGSVKEVFGEGRFDDVVASIMKMQEKVLASSMQQDDTGTVGQIESGEGSGARLSDEQVQQLMNSIREEFKDDLRAIKRRILKLERAVYGANTPKES
notes: Coding region of asp14 (13.8 kDa) fused to GST; also called recombinant Asp14; not shown: glutathione-S-transferase (GST) tag, N-terminal, from vector pDest-15
For the molecule B2, the binding result in data set [2] was “binds”.
